Laboratory results: the Human Domainome abundance scans (Beltran et al. 2025)
± gives the uncertainty stated by the source.

B1: Tumor protein 63, residues 545 to 610; numbered along this chain, Q9H3D4 (parent)
chain: TDCSIVSFLARLGCSSCLDYFTTQGLTTIYQIEHYSMDDLASLKIPEQFRHAIWKGILDHRQLHEF

Variants of: B1
Assay: abundance fitness (aPCA) (normalised: wild type 0, dead -1); higher = more abundant; growth selection in yeast, the domain comes from the species named
Conditions: Homo sapiens

Row | Variant | abundance fitness
1 | L43S | -0.386 ± 0.028
2 | D19E | -0.015 ± 0.036
3 | A52P | -0.043 ± 0.031
4 | I32A | -0.672 ± 0.035
5 | H34G | -0.014 ± 0.018
6 | L12E | -0.285 ± 0.038
7 | I29V | -0.019 ± 0.023
8 | S15L | -0.061 ± 0.025
9 | C3K | -0.075 ± 0.031
10 | A10K | -0.092 ± 0.1
11 | H64G | -0.035 ± 0.021
12 | D38G | -0.021 ± 0.034
13 | I45S | -1.04 ± 0.057
14 | D19Q | -0.087 ± 0.056
15 | A10D | -0.145 ± 0.033
16 | Y30N | -0.046 ± 0.068
17 | C14R | -0.222 ± 0.024
18 | Q24Y | -0.121 ± 0.034
19 | I5F | -0.362 ± 0.029
20 | I5D | -0.997 ± 0.1
21 | Y30I | -0.049 ± 0.043
22 | S4F | -0.158 ± 0.026
23 | I45C | -0.283 ± 0.037
24 | F8L | -0.052 ± 0.022

Row | Variant | abundance fitness
25 | R50W | -0.128 ± 0.027
26 | A10E | -0.003 ± 0.061
27 | S15Y | -0.096 ± 0.043
28 | I5H | -0.647 ± 0.066
29 | D59E | -0.006 ± 0.027
30 | S15M | -0.076 ± 0.034
31 | H64D | -0.028 ± 0.039
32 | H64I | -0.061 ± 0.038
33 | W54H | -0.301 ± 0.23
34 | H51Y | -0.075 ± 0.045
35 | C3W | -0.082 ± 0.02
36 | I29R | -0.285 ± 0.023
37 | F8Y | -0.329 ± 0.048
38 | M37N | -0.132 ± 0.037
39 | F49Q | -0.023 ± 0.028
40 | I29H | -0.432 ± 0.066
41 | Y35D | -0.698 ± 0.088
42 | T27F | -0.063 ± 0.035
43 | T23W | -0.105 ± 0.036
44 | S7T | -0.012 ± 0.031
45 | H34S | -0.004 ± 0.025
46 | A10Q | -0.15 ± 0.27
47 | A52K | -0.023 ± 0.038
48 | Q48P | -0.006 ± 0.044

Row | Variant | abundance fitness
49 | C17H | -0.525 ± 0.049
50 | D38I | -0.077 ± 0.031
51 | V6G | -0.032 ± 0.024
52 | L63A | 0.029 ± 0.029
53 | L40V | -0.122 ± 0.02
54 | G56M | -0.546 ± 0.046
55 | R61D | -0.121 ± 0.075
56 | L18D | -0.09 ± 0.036
57 | A52Y | -0.116 ± 0.043
58 | Q48L | -0.063 ± 0.027
59 | C3Y | 0 ± 0.027
60 | F66H | 0.027 ± 0.056
61 | C17L | -0.085 ± 0.022
62 | K44G | 0.013 ± 0.022
63 | V6D | -0.013 ± 0.035
64 | I53P | -1.07 ± 0.12
65 | Q24I | -0.073 ± 0.06
66 | T28A | -0.065 ± 0.027
67 | E65K | 0.002 ± 0.048
68 | F21Y | -0.85 ± 0.091
69 | G25A | -0.118 ± 0.032
70 | H64K | -0.018 ± 0.043
71 | K44H | -0.075 ± 0.046
72 | E33D | -0.026 ± 0.068

Row | Variant | abundance fitness
73 | F8C | -0.583 ± 0.12
74 | I53Y | -0.821 ± 0.089
75 | Q62W | -0.144 ± 0.034
76 | I5N | -0.915 ± 0.089
77 | C17N | -0.359 ± 0.043
78 | Q24M | -0.067 ± 0.034
79 | Q48E | 0.035 ± 0.033
80 | R50G | -0.274 ± 0.023
81 | F49W | -0.052 ± 0.036
82 | A10C | -0.214 ± 0.029
83 | K44C | -0.052 ± 0.026
84 | D19P | 0.004 ± 0.026
85 | D39E | -0.047 ± 0.048
86 | T1K | -0.122 ± 0.054
87 | I32S | -1.01 ± 0.088
88 | S4P | -0.17 ± 0.026
89 | V6Y | -0.11 ± 0.036
90 | S15C | -0.057 ± 0.037
91 | L43M | -0.105 ± 0.045
92 | I57H | -0.899 ± 0.057
93 | H34T | -0.084 ± 0.031
94 | F66G | -0.214 ± 0.068
95 | I57Q | -0.611 ± 0.074
96 | S36F | -0.379 ± 0.04

Row | Variant | abundance fitness
97 | I29D | -0.42 ± 0.053
98 | D38F | -0.07 ± 0.15
99 | R50Q | -0.067 ± 0.035
100 | S15N | -0.034 ± 0.026
101 | L9M | -0.272 ± 0.036
102 | T28R | -0.051 ± 0.021
103 | L26A | -0.271 ± 0.029
104 | D38N | -0.071 ± 0.078
105 | I29N | -0.719 ± 0.051
106 | C3N | -0.021 ± 0.033
107 | E47G | 0.041 ± 0.022
108 | A41K | 0.008 ± 0.038
109 | M37A | -0.063 ± 0.025
110 | A41Y | -0.103 ± 0.04
111 | L63Q | -0.016 ± 0.033
112 | F49D | -0.021 ± 0.035
113 | T1N | -0.04 ± 0.064
114 | M37F | -0.009 ± 0.072
115 | R61C | -0.073 ± 0.04
116 | D2R | -0.202 ± 0.037
117 | F21V | -1 ± 0.061
118 | Y20W | -0.097 ± 0.033
119 | F21S | -0.773 ± 0.05
120 | F21W | -1.04 ± 0.11

Row | Variant | abundance fitness
121 | D39F | -0.478 ± 0.037
122 | Y35C | -0.099 ± 0.034
123 | Y35A | -0.131 ± 0.026
124 | Q48A | -0.024 ± 0.023
125 | T22H | -0.04 ± 0.043
126 | C3R | -0.051 ± 0.018
127 | L63D | 0.004 ± 0.031
128 | K55G | -0.057 ± 0.022
129 | L26W | -0.435 ± 0.03
130 | H51F | -0.052 ± 0.044
131 | F8M | -0.029 ± 0.027
132 | L40A | -0.967 ± 0.06
133 | T27S | -0.022 ± 0.022
134 | D38C | -0.082 ± 0.06
135 | T28G | -0.069 ± 0.024
136 | Q48R | -0.013 ± 0.021
137 | L43Y | -0.526 ± 0.056
138 | R61H | -0.1 ± 0.054
139 | M37G | -0.215 ± 0.028
140 | T23E | -0.02 ± 0.033
141 | G56D | -0.446 ± 0.038
142 | H60I | -0.045 ± 0.042
143 | T28P | -0.82 ± 0.055
144 | C17G | -0.584 ± 0.036

Row | Variant | abundance fitness
145 | T1F | -0.034 ± 0.13
146 | G56Q | -0.307 ± 0.043
147 | L40M | -0.134 ± 0.041
148 | Q31R | -0.427 ± 0.038
149 | I5Q | -0.973 ± 0.081
150 | I45K | -0.72 ± 0.078
151 | K44Y | -0.083 ± 0.037
152 | D2A | -0.147 ± 0.025
153 | Q48D | -0.04 ± 0.038
154 | W54R | -0.133 ± 0.068
155 | Y20D | -0.175 ± 0.038
156 | R50L | -0.036 ± 0.022
157 | L40K | -1.02 ± 0.3
158 | G13Q | -0.04 ± 0.094
159 | D2Y | -0.182 ± 0.052
160 | E65Q | 0.113 ± 0.14
161 | A52S | -0.016 ± 0.027
162 | I32P | -0.953 ± 0.1
163 | L9H | -1.02 ± 0.37
164 | D39I | -0.449 ± 0.07
165 | F21I | -0.737 ± 0.095
166 | I5R | -1.01 ± 0.054
167 | T1W | -0.047 ± 0.05
